The values below come from article doi:10.1101/2025.10.20.683367.

Assay [1] addresses Methanoculleus sp. schizorhodopsin (Methanoculleus sp. (metagenome-assembled genome)). Description: cryo-EM structure.
The target of assay [2] is Methanoculleus taiwanensis schizorhodopsin (Methanoculleus taiwanensis). Description: cryo-EM structure.

On to “Methanoculleus sp. schizorhodopsin (natural protein)”, for which the stoichiometry N in assay [1] came to 3.
“Methanoculleus taiwanensis schizorhodopsin (natural protein)” displayed a stoichiometry N in assay [2] of 3.
